Laboratory results from patent US20040077031.

How the values were obtained:
[1] = biological target: T1, MAS (methionine-alanine-serine) trimeric peptide
T1 chain: MAS

[2] = biological target: T2, MGAQFSKT (MARCKS protein) octameric peptide
T2 chain: MGAQFSKT

MGK peptide = biological target: T3, MGK peptide
T3 chain: MGK

MGKV peptide = biological target: T4, MGKV peptide
T4 chain: MGKV

MGKVK peptide = biological target: T5, MGKVK peptide
T5 chain: MGKVK

MGKVKV peptide = biological target: T6, MGKVKV peptide
T6 chain: MGKVKV

MGKVKVG (GADPH) peptide = biological target: T7, MGKVKVG (GADPH) peptide
T7 chain: MGKVKVG

MGKVKVGVN peptide = biological target: T8, MGKVKVGVN peptide
T8 chain: MGKVKVGVN

MGKVKVGVNG peptide = biological target: T9, MGKVKVGVNG peptide
T9 chain: MGKVKVGVNG

MGKVKVGVNGF peptide = biological target: T10, MGKVKVGVNGF peptide
T10 chain: MGKVKVGVNGF

[3] = biological target: T11, MGNAAAAK (PKC a) octameric peptide
T11 chain: MGNAAAAK

[4] = biological target: T12, MGNLKSVA (eNOS) octameric peptide
T12 chain: MGNLKSVA

[5] = biological target: T13, MGSSKSKP (Src p60) octameric peptide
T13 chain: MGSSKSKP

B1: recombinant human methionine aminopeptidase type 2 (MetAP2) with N-terminal histidine tag (protein)
chain: MAGVEEVAASGSHLNGDLDPDDREEGAASTAEEAAKKKRRKKKKSKGPSAAGEQEPDKESGASVDEVARQLERSALEDKERDEDDEDGDGDGDGATGKKKKKKKKKRGPKVQTDPPSVPICDLYPNGVFPKGQECEYPPTQDGRTAAWRTTSEEKKALDQASEEIWNDFREAAEAHRQVRKYVMSWIKPGMTMIEICEKLEDCSRKLIKENGLNAGLAFPTGCSLNNCAAHYTPNAGDTTVLQYDDICKIDFGTHISGRIIDCAFTVTFNPKYDTLLKAVKDATNTGIKCAGIDVRLCDVGEAIQEVMESYEVEIDGKTYQVKPIRNLNGHSIGQYRIHAGKTVPIVKGGEATRMEEGEVYAIETFGSTGKGVVHDDMECSHYMKNFDVGHVPIRLPRTKHLLNVINENFGTLAFCRRWLDRLGESKYLMALKNLCDLGIVDPYPPLCDIKGSYTAQFEHTILLRPTCKEVVSRGDDY
Km [1]: 212 µM
baseline activity (turnover, no added metal) [1]: 0.19 µM/min turnover of MAS at 60 nM MetAP2
enzymatic cleavage of peptide substrate [1]: showed enzymatic activity in cleaving a tripeptide MAS substrate
kcat [1]: 2.54 s⁻¹
kcat/Km [1]: 0.72
Km [2]: 224 µM
baseline activity (turnover, no added metal) [2]: 0.12 µM/min turnover of MGAQFSKT at 30 nM MetAP2
kcat [2]: 4.87 s⁻¹
kcat/Km [2]: 1.3
Km (MGK peptide): 758 µM
kcat (MGK peptide): 3.32 s⁻¹
kcat/Km (MGK peptide): 0.3
Km (MGKV peptide): 624 µM
kcat (MGKV peptide): 6.7 s⁻¹
kcat/Km (MGKV peptide): 0.6
Km (MGKVK peptide): 188 µM
kcat (MGKVK peptide): 10.4 s⁻¹
kcat/Km (MGKVK peptide): 3.3
Km (MGKVKV peptide): 149 µM
kcat (MGKVKV peptide): 8.53 s⁻¹
kcat/Km (MGKVKV peptide): 3.4
Km (MGKVKVG (GADPH) peptide): 215 µM
kcat (MGKVKVG (GADPH) peptide): 9.56 s⁻¹
kcat/Km (MGKVKVG (GADPH) peptide): 2.7
Km (MGKVKVGVN peptide): 205 µM
kcat (MGKVKVGVN peptide): 10.2 s⁻¹
kcat/Km (MGKVKVGVN peptide): 3
Km (MGKVKVGVNG peptide): 164 µM
kcat (MGKVKVGVNG peptide): 10.2 s⁻¹
kcat/Km (MGKVKVGVNG peptide): 3.7
Km (MGKVKVGVNGF peptide): 131 µM
kcat (MGKVKVGVNGF peptide): 9.43 s⁻¹
kcat/Km (MGKVKVGVNGF peptide): 4.3
Km [3]: 260 µM
kcat [3]: 3.78 s⁻¹
kcat/Km [3]: 0.9
Km [4]: 208 µM
kcat [4]: 4.87 s⁻¹
kcat/Km [4]: 1.4
Km [5]: 233 µM
kcat [5]: 3.94 s⁻¹
kcat/Km [5]: 1
